Test results from patent US20080058263A1 (published 2008).

Tests used:
Experiment in all cases: receptor-Fc IP
VEGFR-2-Fc = target: T1, VEGFR-2-Fc (UniProt P35968 20-322)
T1 construct: domain: first 3 Ig domains; conditioned supernatant of 293T cells; also called VEGFR-2-Fc fusion protein; not shown: Fc fragment of the pIg vector
Method in brief: (§1)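 fusion protein at 400 ng/ml in an IP mix (PBS, 1.5% BSA, 0.06% Tween 20, 3 μg/ml heparin) was combined with sample supernatant at a 1:2 ratio. Bound ligand captured by immunoprecipitation with pentahistidine antibody.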

VEGFR-3-Fc = target: T2, VEGFR-3-Fc (UniProt P35916 25-328)
T2 construct: domain: first three Ig domains; conditioned supernatant of 293T cells; also called VEGFR-3-Fc fusion protein; not shown: Fc fragment of the pIg vector
T2 sequence (looked up): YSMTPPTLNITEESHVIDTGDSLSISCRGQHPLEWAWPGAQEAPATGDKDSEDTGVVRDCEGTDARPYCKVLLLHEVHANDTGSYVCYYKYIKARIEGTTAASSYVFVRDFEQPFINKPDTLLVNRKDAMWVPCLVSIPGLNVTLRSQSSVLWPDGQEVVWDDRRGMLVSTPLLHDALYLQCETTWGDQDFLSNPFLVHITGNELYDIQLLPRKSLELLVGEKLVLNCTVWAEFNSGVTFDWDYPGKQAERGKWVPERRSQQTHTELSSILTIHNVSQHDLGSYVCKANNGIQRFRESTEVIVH
Method in brief: as §1

VEGFR-1-Fc = target: T3, VEGFR-1-Fc (UniProt P17948 27-338)
T3 construct: domain: first three Ig domains; expressed in Drosophila S2 cells, purified on Protein A sepharose; also called VEGFR-1-Fc fusion protein; not shown: Fc fragment from the Signal-pIgPlus vector
T3 sequence (P17948 27-338): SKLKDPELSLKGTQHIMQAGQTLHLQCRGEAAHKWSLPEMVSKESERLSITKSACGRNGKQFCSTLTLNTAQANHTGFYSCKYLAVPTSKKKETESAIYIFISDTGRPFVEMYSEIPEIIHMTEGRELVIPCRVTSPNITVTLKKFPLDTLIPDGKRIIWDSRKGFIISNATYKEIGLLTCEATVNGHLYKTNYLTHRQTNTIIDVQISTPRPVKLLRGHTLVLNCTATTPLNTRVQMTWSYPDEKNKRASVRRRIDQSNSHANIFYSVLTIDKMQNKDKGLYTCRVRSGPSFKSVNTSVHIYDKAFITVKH
Method in brief: as §1

Measured: binding result

T1 sequence (P35968 20-322): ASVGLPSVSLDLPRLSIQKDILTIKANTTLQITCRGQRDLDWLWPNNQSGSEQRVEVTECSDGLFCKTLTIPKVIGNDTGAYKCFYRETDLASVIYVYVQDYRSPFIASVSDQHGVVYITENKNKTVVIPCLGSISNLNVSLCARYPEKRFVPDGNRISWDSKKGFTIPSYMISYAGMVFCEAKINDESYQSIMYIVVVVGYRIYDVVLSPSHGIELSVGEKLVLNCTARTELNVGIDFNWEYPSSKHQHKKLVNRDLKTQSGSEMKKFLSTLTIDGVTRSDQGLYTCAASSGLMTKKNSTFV

B1: 64-9 (ligand)
chain: GQNHHEVVKFMDVYQRSYCHPREVCIDVGKEFGVATNTFFKPSCVPLMRCGGCCNDEGLECVPTEESNITMQIMRITVPLSQGPKPVTISFLQHNKCECRPKKD
no binding: all assays above

B2: 64-11 (ligand)
chain: GQNHHEVVKFMDVYQRSYCHPREVCIDVGKEFGVATNTFFKPSCVPLMRCGGCCNSEGLQCVPTEESNITMQIMRITVPLSQGPKPVTISFLQHNKCECRPKKD
no binding: all assays above

B3: 54-9 (ligand)
chain: AHYNTEILKSIDNEWRKTQCMPIETLVDIFQEFGVATNTFFKPSCVPLMRCGGCCNDEGLECVPTEESNITMQIMRITVPLSQGPKPVTISFLQHNKCECRPKKD
no binding: all assays above

B4: 24-11 (ligand)
chain: AHYNTEILKSIDNEWRKTQCMPREVCIDVGKEFGVATNTFFKPSCVPLMRCGGCCNSEGLQCVPTEESNITMQIMRITVPLSQGPKPVTISFLQHNKCECRPKKD
no binding: all assays above

B5: 54-13 (ligand)
chain: AHYNTEILKSIDNEWRKTQCMPIETLVDIFQEFGVATNTFFKPSCVPLMRCGGCCNDEGLECVPTEESNITMQIMRITVPLSQGPKPVTISFANHTSCRCMSKLD
no binding: all assays above

B6: 54-11 (ligand)
chain: AHYNTEILKSIDNEWRKTQCMPIETLVDIFQEFGVATNTFFKPSCVPLMRCGGCCNSEGLQCVPTEESNITMQIMRITVPLSQGPKPVTISFLQHNKCECRPKKD
no binding: all assays above

B7: 54-15 (ligand)
chain: AHYNTEILKSIDNEWRKTQCMPIETLVDIFQEFGVATNTFFKPSCVPLMRCGGCCNSEGLQCVPTEESNITMQIMRITVPLSQGPKPVTISFANHTSCRCMSKLD
no binding: all assays above

B8: 83-6 (ligand)
chain: AHYNTEILKFMDVYQRSYCHPIETLVDIFQEYPDEIEYIFKPPCVSVYRCGGCCNDEGLECMNTSTSYLSKTLFEIKPHQGQHIGEMSFANHTSCRCMSKLD
no binding: all assays above

B9: 54-10 (ligand)
chain: AHYNTEILKSIDNEWRKTQCMPIETLVDIFQEFGVATNTFFKPSCVPLMRCGGCCNDEGLECMNTSTSYLSKTLFEITVPLSQGPKPVTISFLQHNKCECRPKKD
no binding: all assays above

B10: 24-2 (ligand)
chain: AHYNTEILKSIDNEWRKTQCMPREVCIDVGKEFGVATNTFFKPSCVPLMRCGGCCNDEGLECMNTSTSYLSKTLFEIKPHQGQHIGEMSFLQHNKCECRPKKD
no binding: all assays above

B11: 24-4 (ligand)
chain: AHYNTEILKSIDNEWRKTQCMPREVCIDVGKEFGVATNTFFKPSCVPLMRCGGCCNSEGLQCMNTSTSYLSKTLFEIKPHQGQHIGEMSFLQHNKCECRPKKD
no binding: all assays above

B12: 24-8 (ligand)
chain: AHYNTEILKSIDNEWRKTQCMPREVCIDVGKEFGVATNTFFKPSCVPLMRCGGCCNSEGLQCMNTSTSYLSKTLFEIKPHQGQHIGEMSFANHTSCRCMSKLD
no binding: all assays above

B13: 44-16 (ligand)
chain: AHYNTEILKFMDVYQRSYCHPREVCIDVGKEFGVATNTFFKPSCVPLMRCGGCCNSEGLQCMNTSTSYLSKTLFEITVPLSQGPKPVTISFANHTSCRCMSKLD
no binding: all assays above

B14: 64-1 (ligand)
chain: GQNHHEVVKFMDVYQRSYCHPREVCIDVGKEFGVATNTFFKPSCVPLMRCGGCCNDEGLECVPTEESNITMQIMRIKPHQGQHIGEMSFLQHNKCECRPKKD
no binding: all assays above

B15: 64-3 (ligand)
chain: GQNHHEVVKFMDVYQRSYCHPREVCIDVGKEFGVATNTFFKPSCVPLMRCGGCCNSEGLQCVPTEESNITMQIMRIKPHQGQHIGEMSFLQHNKCECRPKKD
no binding: all assays above

B16: 64-7 (ligand)
chain: GQNHHEVVKFMDVYQRSYCHPREVCIDVGKEFGVATNTFFKPSCVPLMRCGGCCNSEGLQCVPTEESNITMQIMRIKPHQGQHIGEMSFANHTSCRCMSKLD
no binding: all assays above

B17: 64-5 (ligand)
chain: GQNHHEVVKFMDVYQRSYCHPREVCIDVGKEFGVATNTFFKPSCVPLMRCGGCCNDEGLECVPTEESNITMQIMRIKPHQGQHIGEMSFANHTSCRCMSKLD
no binding: all assays above

B18: 64-2 (ligand)
chain: GQNHHEVVKFMDVYQRSYCHPREVCIDVGKEFGVATNTFFKPSCVPLMRCGGCCNDEGLECMNTSTSYLSKTLFEIKPHQGQHIGEMSFLQHNKCECRPKKD
no binding: all assays above

B19: 64-4 (ligand)
chain: GQNHHEVVKFMDVYQRSYCHPREVCIDVGKEFGVATNTFFKPSCVPLMRCGGCCNSEGLQCMNTSTSYLSKTLFEIKPHQGQHIGEMSFLQHNKCECRPKKD
no binding: all assays above

B20: 64-6 (ligand)
chain: GQNHHEVVKFMDVYQRSYCHPREVCIDVGKEFGVATNTFFKPSCVPLMRCGGCCNDEGLECMNTSTSYLSKTLFEIKPHQGQHIGEMSFANHTSCRCMSKLD
no binding: all assays above

B21: 64-12 (ligand)
chain: GQNHHEVVKFMDVYQRSYCHPREVCIDVGKEFGVATNTFFKPSCVPLMRCGGCCNSEGLQCMNTSTSYLSKTLFEITVPLSQGPKPVTISFLQHNKCECRPKKD
no binding: all assays above

B22: 54-1 (ligand)
chain: AHYNTEILKSIDNEWRKTQCMPIETLVDIFQEFGVATNTFFKPSCVPLMRCGGCCNDEGLECVPTEESNITMQIMRIKPHQGQHIGEMSFLQHNKCECRPKKD
no binding: all assays above

B23: 54-3 (ligand)
chain: AHYNTEILKSIDNEWRKTQCMPIETLVDIFQEFGVATNTFFKPSCVPLMRCGGCCNSEGLQCVPTEESNITMQIMRIKPHQGQHIGEMSFLQHNKCECRPKKD
no binding: all assays above

B24: 44-13 (ligand)
chain: AHYNTEILKFMDVYQRSYCHPREVCIDVGKEFGVATNTFFKPSCVPLMRCGGCCNDEGLECVPTEESNITMQIMRITVPLSQGPKPVTISFANHTSCRCMSKLD
no binding: all assays above

B25: 44-15 (ligand)
chain: AHYNTEILKFMDVYQRSYCHPREVCIDVGKEFGVATNTFFKPSCVPLMRCGGCCNSEGLQCVPTEESNITMQIMRITVPLSQGPKPVTISFANHTSCRCMSKLD
no binding: all assays above
